Measured values taken from PMC9482650, “Quantitative fragmentomics allow affinity mapping of interactomes” (Nature Communications, 2022).
Blank lines part the entries; values can stand above or below the binder they belong to.

Legend:
Test in all cases: holdup assay
Parameters in all cases: key: below the threshold = too weak to quantify, mostly under pKd 3.1 to 4
APBA2_1, Q99767 = target: T1, APBA2_1, Q99767
T1 sequence (Q99767 563-664, limits assumed, looked up): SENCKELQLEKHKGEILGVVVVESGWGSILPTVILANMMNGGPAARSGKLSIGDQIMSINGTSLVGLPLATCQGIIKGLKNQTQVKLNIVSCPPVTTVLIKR

APBA2_2, Q99767 = target: T2, APBA2_2, Q99767
T2 sequence (Q99767 654-744, limits assumed, looked up): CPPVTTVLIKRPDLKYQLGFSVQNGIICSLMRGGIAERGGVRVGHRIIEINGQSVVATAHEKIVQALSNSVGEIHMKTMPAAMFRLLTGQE

ARHGEF11, O15085 = target: T3, ARHGEF11, O15085
T3 sequence (O15085 42-136, limits assumed, looked up): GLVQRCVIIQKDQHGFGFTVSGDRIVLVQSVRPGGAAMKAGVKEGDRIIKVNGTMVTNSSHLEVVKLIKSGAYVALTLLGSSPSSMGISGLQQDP

DFNB31_2, Q9P202 = target: T4, DFNB31_2, Q9P202
T4 sequence (Q9P202 274-371, limits assumed, looked up): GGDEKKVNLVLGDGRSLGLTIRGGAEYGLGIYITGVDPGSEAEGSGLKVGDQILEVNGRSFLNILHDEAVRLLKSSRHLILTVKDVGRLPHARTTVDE

DLG1_1, Q12959 = target: DLG1_1, Q12959
DLG5_1, Q8TDM6 = target: DLG5_1, Q8TDM6
DVL3, Q92997 = target: T5, DVL3, Q92997
T5 sequence (Q92997 244-331, limits assumed, looked up): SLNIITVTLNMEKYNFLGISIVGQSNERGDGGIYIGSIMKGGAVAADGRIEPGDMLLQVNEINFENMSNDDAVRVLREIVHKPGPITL

GRASP, Q7Z6J2 = target: GRASP, Q7Z6J2
GRIP2_3, Q9C0E4 = target: GRIP2_3, Q9C0E4
GRIP2_6, Q9C0E4 = target: GRIP2_6, Q9C0E4
HTRA1, Q92743 = target: HTRA1, Q92743
IL16_3, Q14005 = target: IL16_3, Q14005
IL16_4, Q14005 = target: IL16_4, Q14005
LIMK2, P53671 = target: LIMK2, P53671
LNX2_3, Q8N448 = target: T6, LNX2_3, Q8N448
T6 sequence (Q8N448 463-564, limits assumed, looked up): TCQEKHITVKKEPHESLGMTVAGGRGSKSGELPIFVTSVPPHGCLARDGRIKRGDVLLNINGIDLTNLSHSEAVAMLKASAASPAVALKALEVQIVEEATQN

MPDZ_10, O75970 = target: T7, MPDZ_10, O75970
T7 sequence (O75970 1624-1722, limits assumed, looked up): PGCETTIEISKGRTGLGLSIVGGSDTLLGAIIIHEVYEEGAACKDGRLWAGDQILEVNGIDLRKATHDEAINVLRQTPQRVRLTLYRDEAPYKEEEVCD

MPP6, Q9NZW5 = target: T8, MPP6, Q9NZW5
T8 sequence (Q9NZW5 125-219, limits assumed, looked up): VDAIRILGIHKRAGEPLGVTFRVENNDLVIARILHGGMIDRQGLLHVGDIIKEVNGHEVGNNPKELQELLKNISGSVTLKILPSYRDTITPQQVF

NHERF4_1, Q86UT5-2 = target: NHERF4_1, Q86UT5-2
PDZD2_2, O15018 = target: T9, PDZD2_2, O15018
T9 sequence (O15018 329-429, limits assumed, looked up): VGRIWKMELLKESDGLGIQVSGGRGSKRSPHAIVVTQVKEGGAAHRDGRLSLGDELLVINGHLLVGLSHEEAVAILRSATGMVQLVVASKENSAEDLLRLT

RAPGEF6, Q8TEU7 = target: T10, RAPGEF6, Q8TEU7
T10 sequence (Q8TEU7 525-625, limits assumed, looked up): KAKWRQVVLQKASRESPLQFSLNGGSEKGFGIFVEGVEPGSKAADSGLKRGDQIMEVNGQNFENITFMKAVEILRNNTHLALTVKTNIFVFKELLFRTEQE

SCRIB_2, Q14160 = target: SCRIB_2, Q14160
SCRIB_3, Q14160 = target: SCRIB_3, Q14160
SNTB1, Q13884 = target: T11, SNTB1, Q13884
T11 sequence (Q13884 107-205, limits assumed, looked up): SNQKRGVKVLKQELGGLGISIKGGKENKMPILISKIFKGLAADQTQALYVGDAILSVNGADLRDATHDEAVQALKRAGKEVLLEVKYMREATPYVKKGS

SNX27, Q96L92 = target: SNX27, Q96L92
TJP1_2, Q07157 = target: TJP1_2, Q07157
TJP2_1, Q9UDY2 = target: TJP2_1, Q9UDY2
[1] = plain residues with an end cap or a label only (N-terminal biotin on a linker: ahx)
[2] = plain residues with an end cap or a label only (N-terminal biotin on a linker: ado-ado)
[3] = plain residues with an end cap or a label only (N-terminal biotin on a linker: ttds)

SCRIB_2, Q14160, sequence (Q14160 857-960): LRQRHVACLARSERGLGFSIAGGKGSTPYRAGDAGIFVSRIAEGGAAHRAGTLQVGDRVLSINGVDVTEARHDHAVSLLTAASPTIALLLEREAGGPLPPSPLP
GRASP, Q7Z6J2, sequence (Q7Z6J2 96-193): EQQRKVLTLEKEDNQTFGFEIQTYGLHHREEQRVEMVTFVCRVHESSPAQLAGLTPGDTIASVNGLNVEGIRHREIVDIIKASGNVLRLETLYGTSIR
GRIP2_3, Q9C0E4, sequence (Q9C0E4 238-339): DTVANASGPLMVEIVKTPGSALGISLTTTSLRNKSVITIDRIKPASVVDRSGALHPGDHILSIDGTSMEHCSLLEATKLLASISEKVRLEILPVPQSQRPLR
IL16_4, Q14005, sequence (Q14005 1229-1329): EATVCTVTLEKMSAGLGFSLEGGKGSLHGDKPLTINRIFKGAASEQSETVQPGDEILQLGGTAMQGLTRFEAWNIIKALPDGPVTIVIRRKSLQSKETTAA
LIMK2, P53671, sequence (P53671 143-248): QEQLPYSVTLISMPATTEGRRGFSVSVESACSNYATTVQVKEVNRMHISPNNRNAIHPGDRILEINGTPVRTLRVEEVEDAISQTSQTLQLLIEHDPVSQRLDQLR
TJP2_1, Q9UDY2, sequence (Q9UDY2 24-128): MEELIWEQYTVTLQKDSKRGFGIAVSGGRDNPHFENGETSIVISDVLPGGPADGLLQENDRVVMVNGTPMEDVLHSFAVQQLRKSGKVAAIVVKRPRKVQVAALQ
GRIP2_6, Q9C0E4, sequence (Q9C0E4 648-740): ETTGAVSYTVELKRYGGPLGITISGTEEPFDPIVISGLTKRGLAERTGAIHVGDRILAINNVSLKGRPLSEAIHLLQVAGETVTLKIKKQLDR
TJP1_2, Q07157, sequence (Q07157 181-274): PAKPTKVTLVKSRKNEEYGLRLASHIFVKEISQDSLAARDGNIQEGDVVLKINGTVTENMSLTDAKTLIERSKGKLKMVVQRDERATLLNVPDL
HTRA1, Q92743, sequence (Q92743 360-477): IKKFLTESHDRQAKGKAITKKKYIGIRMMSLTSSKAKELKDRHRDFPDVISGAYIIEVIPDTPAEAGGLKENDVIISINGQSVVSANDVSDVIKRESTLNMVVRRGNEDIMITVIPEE
IL16_3, Q14005, sequence (Q14005 1107-1207): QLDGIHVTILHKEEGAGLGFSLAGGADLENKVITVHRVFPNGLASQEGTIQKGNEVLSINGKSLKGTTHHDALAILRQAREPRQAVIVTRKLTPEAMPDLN
SCRIB_3, Q14160, sequence (Q14160 999-1103): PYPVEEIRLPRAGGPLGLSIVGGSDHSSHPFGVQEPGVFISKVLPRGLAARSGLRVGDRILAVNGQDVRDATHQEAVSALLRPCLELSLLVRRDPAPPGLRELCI
NHERF4_1, Q86UT5-2, sequence (Q86UT5 other isoform, or with tags, fused parts or gaps): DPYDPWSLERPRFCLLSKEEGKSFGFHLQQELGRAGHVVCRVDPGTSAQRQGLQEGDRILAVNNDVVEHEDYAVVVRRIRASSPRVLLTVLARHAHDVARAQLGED
DLG5_1, Q8TDM6, sequence (Q8TDM6 617-713): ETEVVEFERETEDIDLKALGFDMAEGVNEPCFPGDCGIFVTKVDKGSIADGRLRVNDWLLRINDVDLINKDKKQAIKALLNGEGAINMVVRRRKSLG

Binder: GKKSVKHSKI [ACOT6, Q3I5F7]
pKd (APBA2_1, Q99767; [2]): below the threshold
pKd (APBA2_2, Q99767; [2]): below the threshold
pKd (ARHGEF11, O15085; [2]): below the threshold
pKd (DFNB31_2, Q9P202; [2]): 3.81
pKd (DLG1_1, Q12959; [2]): below the threshold
pKd (DLG5_1, Q8TDM6; [2]): below the threshold
pKd (DVL3, Q92997; [2]): below the threshold
pKd (GRASP, Q7Z6J2; [2]): below the threshold
pKd (GRIP2_3, Q9C0E4; [2]): below the threshold
pKd (GRIP2_6, Q9C0E4; [2]): below the threshold
pKd (HTRA1, Q92743; [2]): below the threshold
pKd (IL16_3, Q14005; [2]): below the threshold
pKd (IL16_4, Q14005; [2]): below the threshold
pKd (LIMK2, P53671; [2]): below the threshold
pKd (LNX2_3, Q8N448; [2]): below the threshold
pKd (MPDZ_10, O75970; [2]): below the threshold
pKd (MPP6, Q9NZW5; [2]): 3.5
pKd (NHERF4_1, Q86UT5-2; [2]): below the threshold
pKd (PDZD2_2, O15018; [2]): 4.03
pKd (RAPGEF6, Q8TEU7; [2]): below the threshold
pKd (SCRIB_2, Q14160; [2]): below the threshold
pKd (SCRIB_3, Q14160; [2]): below the threshold
pKd (SNTB1, Q13884; [2]): 3.92
pKd (SNX27, Q96L92; [2]): below the threshold
pKd (TJP1_2, Q07157; [2]): below the threshold
pKd (TJP2_1, Q9UDY2; [2]): below the threshold

Binder: TIVSWPGTFL [LNX1, Q8TBB1]
pKd (APBA2_1, Q99767; [1]): below the threshold
pKd (APBA2_2, Q99767; [1]): below the threshold
pKd (ARHGEF11, O15085; [1]): below the threshold
pKd (DFNB31_2, Q9P202; [1]): below the threshold
pKd (DLG1_1, Q12959; [1]): below the threshold
pKd (DLG5_1, Q8TDM6; [1]): below the threshold
pKd (DVL3, Q92997; [1]): below the threshold
pKd (GRASP, Q7Z6J2; [1]): 4.15
pKd (GRIP2_3, Q9C0E4; [1]): below the threshold
pKd (GRIP2_6, Q9C0E4; [1]): below the threshold
pKd (HTRA1, Q92743; [1]): 4.61
pKd (IL16_3, Q14005; [1]): below the threshold
pKd (IL16_4, Q14005; [1]): below the threshold
pKd (LIMK2, P53671; [1]): below the threshold
pKd (LNX2_3, Q8N448; [1]): below the threshold
pKd (MPDZ_10, O75970; [1]): 3.6
pKd (MPP6, Q9NZW5; [1]): below the threshold
pKd (NHERF4_1, Q86UT5-2; [1]): 3.47
pKd (PDZD2_2, O15018; [1]): 4.03
pKd (RAPGEF6, Q8TEU7; [1]): below the threshold
pKd (SCRIB_2, Q14160; [1]): below the threshold
pKd (SCRIB_3, Q14160; [1]): 4.29
pKd (SNTB1, Q13884; [1]): below the threshold
pKd (SNX27, Q96L92; [1]): 3.79
pKd (TJP1_2, Q07157; [1]): below the threshold
pKd (TJP2_1, Q9UDY2; [1]): below the threshold

Now from value to binder:

pKd (APBA2_1, Q99767; [1]): below the threshold
pKd (APBA2_2, Q99767; [1]): below the threshold
pKd (ARHGEF11, O15085; [1]): 3.49
pKd (DFNB31_2, Q9P202; [1]): below the threshold
pKd (DLG1_1, Q12959; [1]): below the threshold
pKd (DLG5_1, Q8TDM6; [1]): below the threshold
pKd (DVL3, Q92997; [1]): below the threshold
pKd (GRASP, Q7Z6J2; [1]): 5.03
pKd (GRIP2_3, Q9C0E4; [1]): below the threshold
pKd (GRIP2_6, Q9C0E4; [1]): below the threshold
pKd (HTRA1, Q92743; [1]): below the threshold
pKd (IL16_3, Q14005; [1]): below the threshold
pKd (IL16_4, Q14005; [1]): below the threshold
pKd (LIMK2, P53671; [1]): below the threshold
pKd (LNX2_3, Q8N448; [1]): below the threshold
pKd (MPDZ_10, O75970; [1]): 3.77
pKd (MPP6, Q9NZW5; [1]): below the threshold
pKd (NHERF4_1, Q86UT5-2; [1]): 4.15
pKd (PDZD2_2, O15018; [1]): 3.48
pKd (RAPGEF6, Q8TEU7; [1]): below the threshold
pKd (SCRIB_2, Q14160; [1]): below the threshold
pKd (SCRIB_3, Q14160; [1]): below the threshold
pKd (SNTB1, Q13884; [1]): below the threshold
pKd (SNX27, Q96L92; [1]): 3.91
pKd (TJP1_2, Q07157; [1]): below the threshold
pKd (TJP2_1, Q9UDY2; [1]): below the threshold
Binder: GIFPTLTSPL [SHROOM3, Q8TF72]

pKd (APBA2_1, Q99767; [3]): below the threshold
pKd (APBA2_2, Q99767; [3]): below the threshold
pKd (ARHGEF11, O15085; [3]): 3.77
pKd (DFNB31_2, Q9P202; [3]): below the threshold
pKd (DLG1_1, Q12959; [3]): below the threshold
pKd (DLG5_1, Q8TDM6; [3]): below the threshold
pKd (DVL3, Q92997; [3]): below the threshold
pKd (GRASP, Q7Z6J2; [3]): below the threshold
pKd (GRIP2_3, Q9C0E4; [3]): below the threshold
pKd (GRIP2_6, Q9C0E4; [3]): below the threshold
pKd (HTRA1, Q92743; [3]): below the threshold
pKd (IL16_3, Q14005; [3]): below the threshold
pKd (IL16_4, Q14005; [3]): below the threshold
pKd (LIMK2, P53671; [3]): below the threshold
pKd (LNX2_3, Q8N448; [3]): below the threshold
pKd (MPDZ_10, O75970; [3]): below the threshold
pKd (MPP6, Q9NZW5; [3]): below the threshold
pKd (NHERF4_1, Q86UT5-2; [3]): below the threshold
pKd (PDZD2_2, O15018; [3]): below the threshold
pKd (RAPGEF6, Q8TEU7; [3]): below the threshold
pKd (SCRIB_2, Q14160; [3]): 3.57
pKd (SCRIB_3, Q14160; [3]): 4.82
pKd (SNTB1, Q13884; [3]): below the threshold
pKd (SNX27, Q96L92; [3]): 4.91
pKd (TJP1_2, Q07157; [3]): below the threshold
pKd (TJP2_1, Q9UDY2; [3]): below the threshold
Binder: NQLAWFDTDL [CTNNB1, P35222]
